Measured values as given in US20090018029A1.

Biological target: hIFN receptor
Test: BIAcore biosensor; orientation not stated

| Substance | Kd |
| --- | --- |
| 6His-E96pAF IFNα2A (from UniProt P01563 24-188) (ligand) | 12 nM |
| 6His-E113pAF IFNα2A (from UniProt P01563 24-188) (ligand) | 19 nM |
| 6His-F38S IFNα2A (from UniProt P01563 24-188) (ligand) | 42 nM |
| 6His-G37pAF IFNα2A (from UniProt P01563 24-188) (ligand) | 12 nM |
| 6His-K31pAF IFNα2A (from UniProt P01563 24-188) (ligand) | 52 nM |
| 6His-K134pAF IFNα2A (from UniProt P01563 24-188) (ligand) | 10 nM |
| 6His-L110pAF IFNα2A (from UniProt P01563 24-188) (ligand) | 13 nM |
| 6His-P39pAF IFNα2A (from UniProt P01563 24-188) (ligand) | 17 nM |
| 6His-P109pAF IFNα2A (from UniProt P01563 24-188) (ligand) | 17 nM |
| 6His-Q48pAF IFNα2A (from UniProt P01563 24-188) (ligand) | 17 nM |
| 6His-R125pAF IFNα2A (from UniProt P01563 24-188) (ligand) | 19 nM |
| 6His-R149pAF IFNα2A (from UniProt P01563 24-188) (ligand) | 75 nM |
| 6His-Y122S IFNα2A (from UniProt P01563 24-188) (ligand) | 300 nM |
| C1S IFNa2A (from UniProt P01563 24-188) (ligand) | 11 nM |
| Sigma IFNαA (from UniProt P01563 24-188) (ligand) | 11 nM |

Continued, values first:

| Kd | Substance |
| --- | --- |
| 10 nM | 6His-I100pAF IFNα2A (from UniProt P01563 24-188) (ligand) |
| 10 nM | 6His-K49pAF IFNα2A (from UniProt P01563 24-188) (ligand) |
| 9 nM | 6His-Y89pAF IFNα2A (from UniProt P01563 24-188) (ligand) |
| 9 nM | C1S E107pAF IFNα2A (from UniProt P01563 24-188) (ligand) |
| 8 nM | 6His-F27pAF IFNα2A (from UniProt P01563 24-188) (ligand) |
| 8 nM | 6His-L117pAF IFNα2A (from UniProt P01563 24-188) (ligand) |
| 8 nM | 6His-R12pAF IFNα2A (from UniProt P01563 24-188) (ligand) |
| 8 nM | 6His-T106pAF IFNα2A (from UniProt P01563 24-188) (ligand) |
| 6 nM | 6His-IFNα2A (from UniProt P01563 24-188) (ligand) |
| 5 nM | 6His-E107pAF IFNα2A (from UniProt P01563 24-188) (ligand) |
| 5 nM | 6His-I24pAF IFNα2A (from UniProt P01563 24-188) (ligand) |
| 4 nM | 6His-H34pAF IFNα2A (from UniProt P01563 24-188) (ligand) |
| 4 nM | 6His-R120pAF IFNα2A (from UniProt P01563 24-188) (ligand) |
| 3.5 nM | 6His-E159pAF IFNα2A (from UniProt P01563 24-188) (ligand) |

Biological target: human growth hormone receptor on IM-9 cells (human) (UniProt P10912)
UniProt P10912, sequence (P10912 19-638): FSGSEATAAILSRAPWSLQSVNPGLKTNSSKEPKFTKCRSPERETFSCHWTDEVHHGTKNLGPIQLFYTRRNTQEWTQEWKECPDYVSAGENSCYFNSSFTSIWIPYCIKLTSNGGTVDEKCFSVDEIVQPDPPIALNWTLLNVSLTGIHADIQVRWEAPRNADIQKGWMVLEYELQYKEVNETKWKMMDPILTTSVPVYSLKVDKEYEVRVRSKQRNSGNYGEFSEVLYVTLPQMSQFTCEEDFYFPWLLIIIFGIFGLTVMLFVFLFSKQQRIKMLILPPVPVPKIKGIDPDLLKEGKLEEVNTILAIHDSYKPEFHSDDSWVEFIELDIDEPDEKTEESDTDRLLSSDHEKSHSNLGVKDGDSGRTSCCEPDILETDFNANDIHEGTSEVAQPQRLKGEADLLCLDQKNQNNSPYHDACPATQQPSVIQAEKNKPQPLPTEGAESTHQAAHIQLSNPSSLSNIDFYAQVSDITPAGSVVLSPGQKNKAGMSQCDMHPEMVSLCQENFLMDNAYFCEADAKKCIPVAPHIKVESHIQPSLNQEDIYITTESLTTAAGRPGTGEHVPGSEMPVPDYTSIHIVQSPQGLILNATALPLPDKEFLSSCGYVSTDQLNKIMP
Test: cell-based or functional assay

| EC50 of STAT5 phosphorylation in IM-9 cells (phospho-STAT5 MFI, flow cytometry) | Substance |
| --- | --- |
| > 200000 nM | rat growth hormone, wild type (from UniProt P01244 27-216) (ligand) |
